In test [1] the target is Cephalosporium lectin (Cephalosporium (isolated from the corneal smears of a keratitis patient)). The experiment in a line: SEC; gel filtration on a Superdex G-75 column in PBS, calibrated with standard proteins; 57 kDa compared with the 14 kDa subunit mass by SDS-PAGE. On the technique in general: SEC sorts molecules by how far they enter the pores of the column.
Test [2] shares this target.

Data on 4 molecules can be found in PMC3008968.

For orientation: stoichiometry N means a count of units in the complex or per binding partner. Turning to Cephalosporium lectin (natural protein), the stoichiometry N in test [1] is 4.
Consider “Mucin (porcine stomach, type III) (natural protein)”, for which, in test [2], the minimum concentration required to inhibit hemagglutination of trypsinized human erythrocytes by CSL (hapten inhibition, MIC) is 0.785 μg/50 μl.

B1: fetuin (fetal calf serum) (natural protein)
chain: IPLDPVAGYKEPACDDPDTEQAALAAVDYINKHLPRGYKHTLNQIDSVKVWPRRPTGEVYDIEIDTLETTCHVLDPTPLANCSVRQQTQHAVEGDCDIHVLKQDGQFSVLFTKCDSSPDSAEDVRKLCPDCPLLAPLNDSRVVHAVEVALATFNAESNGSYLQLVEISRAQFVPLPVSVSVEFAVAATDCIAKEVVDPTKCNLLAEKQYGFCKGSVIQKALGGEDVRVTCTLFQTQPVIPQPQPDGAEAEAPSAVPDAAGPTPSAAGPPVASVVVGPSVVAVPLPLHRAHYDLRHTFSGVASVESSSGEAFHVGKTPIVGQPSIPGGPVRLCPGRIRYFKI
In test [2], B1 had a minimum concentration required to inhibit hemagglutination of trypsinized human erythrocytes by CSL (hapten inhibition, MIC) of 6.25 μg/50 μl.

B2: Asialofetuin (natural protein)
chain: B1 chain
modifications: asialo form (asialofetuin)
B2 yielded a minimum concentration required to inhibit hemagglutination of trypsinized human erythrocytes by CSL (hapten inhibition, MIC) in test [2] of 12.5 μg/50 μl.
